Experimental data taken from paper PMC3651084.

What follows are substances tested against recombinant human HER3-Fc chimera (UniProt P21860) (assay: flow cytometry on staphylococcal-displayed mutants). Settings: parent: est. 83; read off a plot.
Chain of UniProt P21860 (P21860 20-643, change not shown): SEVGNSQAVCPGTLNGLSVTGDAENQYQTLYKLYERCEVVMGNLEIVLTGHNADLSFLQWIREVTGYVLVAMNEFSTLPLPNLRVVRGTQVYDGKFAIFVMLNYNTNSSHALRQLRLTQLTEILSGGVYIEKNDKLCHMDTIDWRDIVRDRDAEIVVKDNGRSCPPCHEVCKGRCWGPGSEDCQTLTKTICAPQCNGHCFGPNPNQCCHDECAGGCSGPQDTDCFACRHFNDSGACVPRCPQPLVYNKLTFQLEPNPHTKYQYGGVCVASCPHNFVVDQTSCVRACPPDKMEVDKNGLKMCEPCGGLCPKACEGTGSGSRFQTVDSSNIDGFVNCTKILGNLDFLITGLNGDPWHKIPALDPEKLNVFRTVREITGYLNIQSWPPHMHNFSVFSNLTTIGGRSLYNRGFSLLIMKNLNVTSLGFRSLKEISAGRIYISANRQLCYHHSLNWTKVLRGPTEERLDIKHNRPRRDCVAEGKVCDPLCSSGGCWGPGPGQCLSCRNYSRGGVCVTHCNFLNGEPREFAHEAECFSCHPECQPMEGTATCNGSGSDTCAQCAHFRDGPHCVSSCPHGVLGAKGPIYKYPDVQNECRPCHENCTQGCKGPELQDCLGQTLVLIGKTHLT

Row | Substance | response
1 | HER3-binding Affibody molecule Z05416, displayed on S. carnosus A28L | 87
2 | HER3-binding Affibody molecule Z05416, displayed on S. carnosus F14A | 72
3 | HER3-binding Affibody molecule Z05416, displayed on S. carnosus K9A | 43
4 | HER3-binding Affibody molecule Z05416, displayed on S. carnosus K27A | 100
5 | HER3-binding Affibody molecule Z05416, displayed on S. carnosus Q18A | 71
6 | HER3-binding Affibody molecule Z05416, displayed on S. carnosus Q35A | 92
7 | HER3-binding Affibody molecule Z05416, displayed on S. carnosus R25A | 91
8 | HER3-binding Affibody molecule Z05416, displayed on S. carnosus S32A | 93
9 | HER3-binding Affibody molecule Z05416, displayed on S. carnosus T11A | 86
10 | HER3-binding Affibody molecule Z05416, displayed on S. carnosus V24A | 78
11 | HER3-binding Affibody molecule Z05416, displayed on S. carnosus W17A | 10
12 | HER3-binding Affibody molecule Z05416, displayed on S. carnosus Y10A | 10
13 | HER3-binding Affibody molecule Z05416, displayed on S. carnosus Y13A | 66
